{"source": "the nanobody polyreactivity screen of Harvey et al. (2022)", "data": [{"experiment": "yeast display, Sf9 membrane polyspecificity reagent, FACS + sequencing; frameworks hold sequencing errors", "method_in_brief": "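Polyreactivity labels are assigned by the sorting gate from which each nanobody was recovered. The gates were low and high (top ~1%), set on anti-HA fluorescence for expression and streptavidin fluorescence for reagent binding. Before sorting, galactose-induced (36–48 hours) yeast display cells were stained for 1 hour at 4 °C with 10% biotinylated, detergent-solubilized Sf9 membrane reagent.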", "values": [{"sequence": "QVQLVESGGGLVQAGGSLRLSCAASGLTFYQNDLGWYRQAPGKERELVAAITLSGDITYYADSVKGRFTISRDNAKNTVFLQMNSLKPEDTAVYYCNADLYVDPWTYFGYDYWGQGTQVTVSS", "polyreactivity (PSR sort gate)": "low polyreactivity"}, {"sequence": "QVQLVESGGGLVQAGGSLRLSCAASGLTFYRNAMGRYRQAPGKERELVAAITASGGRTYYADSVKGRFTISRDNAKNTVYLQMNSLKPEVTAVYYCAADGKVQGGYYWGQGTQVTVSS", "polyreactivity (PSR sort gate)": "high polyreactivity"}, {"sequence": "QVQLVESGGGLVQAGGSLRLSCAASGLTFYRYAMGWYRQAPGKERELVAAIRVSGNTYYADSVKGRFTISRDNAKNTVYLQMNSLKPEDTAVFYCAAIPYYFYGMDYWGQGTQVTVSS", "polyreactivity (PSR sort gate)": "high polyreactivity"}, {"sequence": "QVQLVESGGGLVQAGGSLRLSCAASGLTFYRYAMGWYRQAPGKERELVAAITSSGRTNYADSVKGRFTISRDNAKNTVYLQMNSLKPEDTAVYYCNAVRRTFNGPGSSQGYDYWGQGTQVTVSS", "polyreactivity (PSR sort gate)": "high polyreactivity"}, {"sequence": "QVQLVESGGGLVQAGGSLRLSCAASGLTFYRYAMGWYRQAPGKERELVATIRSGDGTYYADSVKGRFTISRDNAMNTVYFKMNSLKPEDTAVYYCAAKKVYRVYGRYEYWGQGTQVTVSS", "polyreactivity (PSR sort gate)": "high polyreactivity"}, {"sequence": "QVQLVESGGGLVQAGGSLRLSCAASGLTFYVYAMGWYRQAPGKEREFVAAISWSGTSTSYADSVKGRFTISRDNAKNTVYLQMNSLKPEDTAVYYCAADSFASVYFGTGYDYWGQGTQVTVSS", "polyreactivity (PSR sort gate)": "low polyreactivity"}, {"sequence": "QVQLVESGGGLVQAGGSLRLSCAASGLTFYWNAMGWYRQAPGKERELVASISQSSGNTYYADSVKGRFSISRDNAKNTVYLQMNSLKPEDTAVYYCAARNRPSLNRYYYWGQGTQVNVSS", "polyreactivity (PSR sort gate)": "low polyreactivity"}, {"sequence": "QVQLVESGGGLVQAGGSLRLSCAASGLTFYYYAMGWYRQAPGIEREFVAAINWDGGSTYYADSVKGRFTISRDKAKNTVYLQMNSLKPEDTAVYYCATGDTDYDYWGQGTQVTVSS", "polyreactivity (PSR sort gate)": "low polyreactivity"}, {"sequence": "QVQLVESGGGLVQAGGSLRLSCAASGLTFYYYAMGWYRQAPGKEREFVAAITRSGTNTYYADSVKGRFTISRDTAKNTVYLQMNSLKPEDTAVYYCAKTGYSFRVFRKYDWGQGTQVTVSS", "polyreactivity (PSR sort gate)": "high polyreactivity"}, {"sequence": "QVQLVESGGGLVQAGGSLRLSCAASGLTFYYYAMGWYRQAPGKERELVAAISATGGRTYYADSVKGRFTISRDNAKNTVYLQMNSLKPEDTAVYYCAADTPYLRRRLGMDYWGQGTQVTVSS", "polyreactivity (PSR sort gate)": "high polyreactivity"}, {"sequence": "QVQLVESGGGLVQAGGSLRLSCAASGLTFYYYAMGWYRQAPGKERELVAAISCSGGSTYYADSVKGRFTISRDNAKNTVYLQMNSLKPEDTAVYYCAAEGDYFLWYRYDYWGQGTQVTVSS", "polyreactivity (PSR sort gate)": "high polyreactivity"}, {"sequence": "QVQLVESGGGLVQAGGSLRLSCAASGLTFYYYAMGWYRQAPGKERELVAAISSVGSTYYADSVKGRFTISRDNAKNTVYLQRNSLKPEDTAVYYCAAKSYWWHEDYWGQGTQVTVSS", "polyreactivity (PSR sort gate)": "low polyreactivity"}, {"sequence": "QVQLVESGGGLVQAGGSLRLSCAASGLTFYYYAMGWYRQATGKERELVATITRSGGGTYFADSVKGRFTISRDNAKNTVYLQMNSLKPEDTAVYYCAADLSWYVLFSGLYDYWGQGTQVTVSS", "polyreactivity (PSR sort gate)": "high polyreactivity"}, {"sequence": "QVQLVESGGGLVQAGGSLRLSCAASGLTFYYYDMGWYRQAPGKERELVAAITTDGSTNYADSVKGRFTISRDNAKNTVYLQMNSLKPEDTAVYYCAADKYYRYNYWGQGTQVTVSS", "polyreactivity (PSR sort gate)": "high polyreactivity"}, {"sequence": "QVQLVESGGGLVQAGGSLRLSCAASGLTFYYYVMAWYRQAPGKERELVAAISRSGGSTRYADSVKGRFTISRDNANNTVYLQMNSLKPEDTAVYYCNAVRYPRLMYYWGQGTQVTVSS", "polyreactivity (PSR sort gate)": "high polyreactivity"}, {"sequence": "QVQLVESGGGLVQAGGSLRLSCAASGLTILPNAMGWYRPAPGKERELVAAISWGDGNTYYADSVKGRFTISRDNAKNTVYLQMNSLKPEDTAVYYCAADVIKSRTYDYWGQGTQVTVSS", "polyreactivity (PSR sort gate)": "low polyreactivity"}, {"sequence": "QVQLVESGGGLVQAGGSLRLSCAASGLTIRYYAMGWYRKAPGKERELVAAISSSGGRTYYADSVKGRFTISRDNAKNTVYLQMNSLKPEDTAVYYCSRDYGYGLMGYWGQGTQVTVSS", "polyreactivity (PSR sort gate)": "high polyreactivity"}, {"sequence": "QVQLVESGGGLVQAGGSLRLSCAASGLTISAYAMGWYRQAPGKERELVAAITSSGGSTYADSVKGRFTISRDNAKNTVYLQMNSLKPEVTAVYYCAARVVRYGYKYYYWGQGTQVTVSS", "polyreactivity (PSR sort gate)": "low polyreactivity"}, {"sequence": "QVQLVESGGGLVQAGGSLRLSCAASGLTISRYAMGWYRQAPGKEREFVASISISSVDTYYADSVKGRFTISRDNAKNTVYLQMNSLKPEDTAVYYCAAAGRVGVTRYYSWGQGTQVTVSS", "polyreactivity (PSR sort gate)": "high polyreactivity"}, {"sequence": "QVQLVESGGGLVQAGGSLRLSCAASGLTISWYAMGWYRQAPGKEWELVAAISTRGGRTYYADSVKGRFTISRDNAKNTVYLQMNSRKQEDNAVYYCAAGVYYRYLWLFDYWGQGTQVTVSS", "polyreactivity (PSR sort gate)": "high polyreactivity"}, {"sequence": "QVQLVESGGGLVQAGGSLRLSCAASGLTIVQYAMGWYRQAPGKERELVARISRNGGSSYYADSVKGRFPISRDNAKNTVYLQMNSLKPEDTAVYYCNALRGPVKFYYWGQGTQVTVSS", "polyreactivity (PSR sort gate)": "low polyreactivity"}, {"sequence": "QVQLVESGGGLVQAGGSLRLSCAASGLTIWYYSMGLYRQAPGKEREFVAAITSRGGDTNYADSVKGRFTISRDNAKNTVYLQMNSLKPEDTAVYYCAVRPRYYGTYRYYYWGQGTQVTVSS", "polyreactivity (PSR sort gate)": "high polyreactivity"}, {"sequence": "QVQLVESGGGLVQAGGSLRLSCAASGLTLAGYAMGWYRQAPGKERELVAAITASGVRTYYADSVKGRFTISRDNAKNTVYLQMNSLKPEDTAVYYCAAGVQTQRGGYAIYRPGLRYYWGQGTQVTVSS", "polyreactivity (PSR sort gate)": "high polyreactivity"}, {"sequence": "QVQLVESGGGLVQAGGSLRLSCAASGLTLDKYAMGWYRPAPRKERELVAGINSRGGSTYADSVKGRFTISRDNAKNTVYLQMNSMKPEDTAVYYCAADGKVQGGYYWGQGTQVTVSS", "polyreactivity (PSR sort gate)": "high polyreactivity"}, {"sequence": "QVQLVESGGGLVQAGGSLRLSCAASGLTLETNAMGWYRQAPGKERELVAGITYSGGTTYYADSVKGRFTISRDNAKNTVYLQMNSLKPEDTAVYYCAAHTRTSGHNYWGQGTQVTVSS", "polyreactivity (PSR sort gate)": "low polyreactivity"}, {"sequence": "QVQLVESGGGLVQAGGSLRLSCAASGLTLGRNAMGWYRQAPGKERELVAAITQSGGSTYYADSVKGRFTISRDNAKNTVYLQMNSLKAEDTAVYYCAAEVVRQWHGIGYDYWGQGTQVTVSS", "polyreactivity (PSR sort gate)": "low polyreactivity"}, {"sequence": "QVQLVESGGGLVQAGGSLRLSCAASGLTLGSYAMGWYRQAPGKERELVAAISRRSGRTYYADSVKGRFTISRDNAKNTVYLQMNSLKPEDTAVYYCNRGYTAQVYTEFDYWGQGTQVTVSS", "polyreactivity (PSR sort gate)": "low polyreactivity"}, {"sequence": "QVQLVESGGGLVQAGGSLRLSCAASGLTLLKNAMGWYRQAPGKEREYADSVKGRFTISRDNAKNTVYLQMNSLKPEDTAVYYCAKDVNGGYFYYQYPAQYYYWGQGTQVTVSS", "polyreactivity (PSR sort gate)": "low polyreactivity"}, {"sequence": "QVQLVESGGGLVQAGGSLRLSCAASGLTLRNYAMGWYRQAPGKERELVARITTGGSTHYADSVKGRFTISRDNAKNTVSLQMHSLKPEDTAVYYCNTGPYTFVSPEYYYWGQGTQVTVSS", "polyreactivity (PSR sort gate)": "low polyreactivity"}, {"sequence": "QVQLVESGGGLVQAGGSLRLSCAASGLTLRWYDMGWYRQAPGKERELVAAITTNGGSTYYADSVKGRFTISRDNAKNTVYLQMNSLKPEDTAVYYCAALYWRSTVGAYSTYEYDYWGQGTQVTVSS", "polyreactivity (PSR sort gate)": "high polyreactivity"}, {"sequence": "QVQLVESGGGLVQAGGSLRLSCAASGLTLSGYAMGWYRQAPGKERELVAAISSTGGSTYYADSVKGRFTISRDNAKNTVYLQMNSLKPEDTAVYYCAKGYSPTRVRLRYPRYDTYNHWGQGTQVTVSS", "polyreactivity (PSR sort gate)": "high polyreactivity"}, {"sequence": "QVQLVESGGGLVQAGGSLRLSCAASGLTLSYNAMGWYRQAPGKERELVAAIRSGGSTNYADSVKGRFTISRDNAKNTVYLQMNSLKPVDTAVYYCAARFRYLPYRYGRYQSGYEYWGQGTQVTVSS", "polyreactivity (PSR sort gate)": "high polyreactivity"}, {"sequence": "QVQLVESGGGLVQAGGSLRLSCAASGLTLSYYAMGWYRQAPGKERELVAAISSGGSTYYADSVKGRFTISRDNAKNTVYLQMNSLKPEDTAVYYCAAQWWRLYWEYYYWGQGTQVTVSS", "polyreactivity (PSR sort gate)": "low polyreactivity"}, {"sequence": "QVQLVESGGGLVQAGGSLRLSCAASGLTLTPYVMGWYRQAPGKEREFVAAITYTGGRTYYADSVKGRFTISRDNAKNTVYLKMNSLKPEDTAVYDCNKGYYQTWPRYYSWGQGTQVTVSS", "polyreactivity (PSR sort gate)": "high polyreactivity"}, {"sequence": "QVQLVESGGGLVQAGGSLRLSCAASGLTLYRYAMGWYRQAPGKEREFVASISWSGGSTYYADSVKGRFTISRDNANNTVYLQMNSLKPEDTAVYYCATDSDTSQLGYDYWGQGTQVTVSS", "polyreactivity (PSR sort gate)": "low polyreactivity"}, {"sequence": "QVQLVESGGGLVQAGGSLRLSCAASGLTSDENAMGWYRQAPGKERELVAVISNSGDSTYYADSVKGRFTISRDTAKNTVYLQLNSLKPEDTAVYNCAADGLSKFDYWGQGTQVTVSS", "polyreactivity (PSR sort gate)": "low polyreactivity"}, {"sequence": "QVQLVESGGGLVQAGGSLRLSCAASGLTSLGNAMGWYRQAPGKERELVAAITRTGTSTYYADSVKGRFTISRDNAKNTVYLQMNSLKPEDTAVYYCAALDRYSTEYKYQLYKQEYDYWVQGTQVTVSS", "polyreactivity (PSR sort gate)": "low polyreactivity"}, {"sequence": "QVQLVESGGGLVQAGGSLRLSCAASGLTSSGNAMGWYRQAPGKERELVAAISWKAGSTYYADSVKGRFTISRDNAKNTVYLQMNSLKPEDTGVYYCAATLWSKTGYDYWGQGTIVTVSS", "polyreactivity (PSR sort gate)": "low polyreactivity"}, {"sequence": "QVQLVESGGGLVQAGGSLRLSCAASGLTSTNNAMGWYRQAHGKERELVAAITSGSTTNYADSVKGRFTISRDNAKNTVYLQMNSLKPEDTAVYYCAAQYGVCWRRYYYPEYDYWGQGTQVTVSS", "polyreactivity (PSR sort gate)": "low polyreactivity"}, {"sequence": "QVQLVESGGGLVQAGGSLRLSCAASGLTSYDYGMGWYRQAPGKERELVAAITWSGGSTYYADSVKGRFTISRDNAKNTVYLEMHSLKPEDTAVYYCAAESWGYGWYGYWGQGNQVTVSS", "polyreactivity (PSR sort gate)": "low polyreactivity"}, {"sequence": "QVQLVESGGGLVQAGGSLRLSCAASGLTYKYYAMGWYRQAPGKERELVARISRGGNTNYADSVKGRFTISRDNAKNTVYLQMNSVKPEDTAVFYCAATVRVYDYWGQGTQVSVSS", "polyreactivity (PSR sort gate)": "high polyreactivity"}, {"sequence": "QVQLVESGGGLVQAGGSLRLSCAASGMIFGYYAMGWYRQAPAKERELVAAITGSGGRTYYADSVKGRFTISRDNAKNTVYLQMNSLKTEDTAVYYCADRGVNGMGYWGQGTHVTVSS", "polyreactivity (PSR sort gate)": "high polyreactivity"}, {"sequence": "QVQLVESGGGLVQAGGSLRLSCAASGNAIGWYRQAPGKERELVASINRSGGRTYYADSVKGRFTISRDNAKNTVYLQMNSLKPEDTAVYYCAARTHYDSDYWGQGTQVTVSS", "polyreactivity (PSR sort gate)": "low polyreactivity"}]}]}
